{
  "source": "patent US11578136B2",
  "about": "“Compositions and methods for treating cancer” (INNATE PHARMA, priority 2017, dated 2023)",
  "key": {"[1]": {"system": "NTPDase1, NTPDase3, NPP1 or mouse NTPDase8", "conditions": "not specific for CD39; cited from earlier work"}, "[2]": {"biological_target": "T1, soluble recombinant human CD39 protein (Homo sapiens, UniProt P49961)", "T1 construct": "made in house; host or cells: CHO cells", "T1 sequence (P49961 with tags, fused parts or gaps)": "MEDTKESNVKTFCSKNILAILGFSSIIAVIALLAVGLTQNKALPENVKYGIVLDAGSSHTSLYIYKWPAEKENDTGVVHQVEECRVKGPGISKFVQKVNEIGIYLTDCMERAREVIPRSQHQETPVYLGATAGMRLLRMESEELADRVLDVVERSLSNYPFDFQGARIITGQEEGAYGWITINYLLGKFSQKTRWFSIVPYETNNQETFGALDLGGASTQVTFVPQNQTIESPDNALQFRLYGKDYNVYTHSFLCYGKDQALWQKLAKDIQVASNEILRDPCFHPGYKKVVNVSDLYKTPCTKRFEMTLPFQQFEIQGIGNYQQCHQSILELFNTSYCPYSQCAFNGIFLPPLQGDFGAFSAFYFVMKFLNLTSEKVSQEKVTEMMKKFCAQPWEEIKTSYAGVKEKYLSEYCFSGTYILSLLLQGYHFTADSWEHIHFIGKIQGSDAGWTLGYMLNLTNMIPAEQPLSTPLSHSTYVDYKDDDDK", "assay": "Inhibition of the enzymatic activity of soluble CD39 (Cell Titer Glo)", "type": "biochemical", "conditions": "result in words; 400 ng/ml sCD39, 20 μM ATP", "experimental": "The inhibition by antibodies of the enzymatic activity of soluble CD39 protein produced was evaluated using Cell Titer Glo™ (Promega, reference G7571) that allows assessment of ATP hydrolysis through use of a reagent that generates a luminescent signal proportional to the amount of ATP present. In this way, inhibition of the soluble-CD39-meidatd ATP hydrolysis can be assessed. Briefly, dose ranges of anti-CD39 antibodies from 100 μg/ml to 6×10^−3 μg/ml were incubated with 400 ng/ml of soluble recombinant human CD39 protein having the amino acid sequence described in the Methods section (SEQ ID NO: 45), for 1 h at 37° C. 20 μM ATP was added to the plates for 30 additional minutes at 37° C. before addition of CTG (Cell Titer Glo) reagent. Emitted light was quantified using an Enspire™ luminometer after a short incubation period of 5 min in the dark. Anti-CD39 antibody efficacy was determined by comparing emitted light in presence of antibody with ATP alone (maximal light emission) and ATP together with soluble CD39 protein (minimal light emission)."}, "[3]": {"system": "CD39 mutants transfected in Hek-293T cells", "assay": "Epitope mapping: binding to CD39 mutants by flow cytometry", "set-up": "species or system human", "experimental": "CD39 mutants were generated by PCR. The sequences amplified were run on agarose gel and purified using the Macherey Nagel PCR Clean-Up Gel Extraction kit (reference 740609). The purified PCR products generated for each mutant were then ligated into an expression vector, with the ClonTech InFusion system. The vectors containing the mutated sequences were prepared as Miniprep and sequenced. After sequencing, the vectors containing the mutated sequences were prepared as Midiprep using the Promega PureYield™ Plasmid Midiprep System. HEK293T cells were grown in DMEM medium (Invitrogen), transfected with vectors using Invitrogen's Lipofectamine 2000 and incubated at 37° C. in a CO2 incubator for 48 hours prior to testing for transgene expression. The targeted amino acid mutations in the table 1 below are shown using numbering of SEQ ID NO: 1.\nIn order to define the epitopes of anti-CD39 antibodies, we designed CD39 mutants defined by substitutions of amino acids exposed at the molecular surface over the surface of CD39. Mutants were transfected in Hek-293T cells, as shown in the table 1, using numbering of SEQ ID NO: 1.\nDose-ranges of I-394 (10-2.5-0.625-0.1563-0.0391-0.0098-0.0024-0.0006 μg/ml) are tested on the 20 generated mutants by flow cytometry. […] Mutant 5 contains amino acid substitutions at residues Q96, N99, E143 and R147.\nMutants were transfected in Hek-293T cells, as shown in the table 1, using numbering of SEQ ID NO: 1. Dose-ranges of antibodies I-394 were tested on the 20 mutants by flow cytometry. […] Mutant 19 includes substitutions at residues R138, M139 and E142. The core epitope of I-394 thus includes one or more (or all of) residues R138, M139 and E142.\nMutants were transfected in Hek-293T cells, as shown in the table 1, using numbering of SEQ ID NO: 1.Dose-ranges of test antibodies (10-2.5-0.625-0.1563-0.0391-0.0098-0.0024-0.0006 μg/ml) are tested on the 20 generated mutants by flow cytometry."}},
  "data": [
    {"molecule": "CCN(CC)c1ncnc2c1ncn2[C@@H]1O[C@H](COP(=O)(O)OP(=O)(O)C(Br)(Br)P(=O)(O)O)[C@@H](O)[C@H]1O", "note": "[ARL67156]", "values": [
      {"measurement": "type of inhibition of NTPDases", "setting": "[1]", "value": "weak competitive inhibitor"}
    ]},
    {"molecule": "I-399: anti-CD39 antibody, VH SEQ ID NO: 30, VL SEQ ID NO: 31 (antibody, listed as Mus musculus, V domains shown) VH: PVQLQQPGAEVVMPGASVKLSCKASGYTFTSFWMNWMRQRPGQGLEWIGEIDPSDFYTNSNQRFKGKATLTVDKSSSTAYMQLSSLTSEDSAVYFCARGDFGWYFDVWGTGTSVTVSS VL: EIVLTQSPTTMTSSPGEKITFTCSASSSINSNYLHWYQQKPGFSPKLLIYRTSNLASGVPTRFSGSGSGTSYSLTIGTMEAEDVATYYCQQGSSLPRTFGGGTKLEIK", "values": [
      {"measurement": "inhibition of the enzymatic activity of soluble CD39 protein", "setting": "[2]", "value": "showed inhibition"},
      {"measurement": "binding to mutant 11 of CD39", "setting": "[3]; mutant 11: N371K, L372K, E375A, K376G, V377A, insertion 377V", "value": "loss of binding"},
      {"measurement": "binding to any other mutant of the 20 CD39 mutants", "setting": "[3]; remaining mutants of Table 1", "value": "without loss of binding"}
    ]}
  ]
}
